Among the data in US20230159661A1 (published 2023) are Kd values, retold here.

Assay [1] concerns the target T1, human EGFR soluble extracellular region with C-terminal poly-histidine tag (hEGFR) (UniProt P00533 25-638). Briefly: SPR. In general terms: SPR reads the build-up and loss of mass on a sensor chip optically.
For assay [2], the target named is T1, human EGFR soluble extracellular region …. Briefly: SPR. This is another data set of the same source.

Where two headings read alike, the source gives them in different places.

B1: 10E6-best-fit (antibody, V domains shown)
VH: QVQLQESGPGLVKPSQTLSLTCTVSGYSLTSDYAWSWIRQPPGKGLEWMVYITYSGITTYNPSLKSRITISRDTSKNQFSLKLSSVTAADTAVYYCAGGDYGLSSWFAYWGQGTTVTVSS
VL: EIVLTQSPDFQSVTPKEKVTITCRASQSISNYLHWYQQKPDQSPKLLIKYASQSISGVPSRFSGSGSGTDFTLTINSLEAEDAATYFCQQSNNWPYTFGQGTKLEIKR
Turning to B1, binding in assay [1] was put at a Kd of 20.1 nM.

B2: 10E6 chimeric antibody (antibody, V domains shown)
VH: DVQLQESGPGRVKPSQSLSLTCTVTGYSLTSDYAWSWIRQFPGNRLEWMVYITYSGITTYNPSLKSRISITRDTSKNQFFLQLNSVTTEDTATYYCAGGDYGLSSWFAYWGQGTLVTVSS
VL: DIVLTQSPVTLSVTPGDRVSLSCRASQSISNYLHWYQQKSHESPRLLIKYASQSISGIPSRFSGSGSGTDFTLSINSVETEDFGMYFCQQSNNWPYTFGGGTKLEIKR
For the molecule B2, the Kd (commonly the concentration at which binding is half-saturated) in assay [2] amounted to 10.8 nM. In other words, the double-digit nanomolar range.

B3: 10E6-stable (antibody, V domains shown)
VH: EVQLVESGGGLVQPGGSLRLSCAVSGYSLTSDYAWSWIRQAPGKGLEWMVYITYSGITTYNPSLKSRITISRDTSKNTFYLQMNSLRAEDTAVYYCAGGDYGLSSWFAYWGQGTMVTVSS
VL: DIQLTQSPSSLSASVGDRVTITCRASQSISNYLHWYQQKPGKAPKLLIKYASQSISGVPSRFSGSGSGTDFTLTISSLQPEDFATYFCQQSNNWPYTFGQGTKVEIKR
In assay [1], B3 returned a Kd of 14.5 nM.

B4: 3A6 chimeric antibody (antibody, V domains shown)
VH: QVQLKQSGPGLVQPSQSLSITCTVSGFSLTSYGVHWVRQSPGKGLEWLGVIWSGGTTDYNAAFISRLSISQDNSKSQVFFKMNSLQANDTAIYYCAGNQGRTVRPTWFAYWGQGTLVTVSS
VL: DILLTQSPAILSVSPGERVSFSCRASQSIGTSIHWYQQRANGSPRLLIKYASESISGIPSRFSGSGSGTDFTLSINSVESEDIAHYYCQQNSNWPLTFGAGTKLELKR
B4: the affinity in assay [2], expressed as Kd, was 346 nM.
